Values of other authors in article PMC7925366.
Where “and” joins values, the source holds several entries; their conditions need not be identical. Equal values may be shown once. Read-outs that look alike come from different tables or passages of the source.

What was measured:
[1] = target: vimentin coils 1A and 1B (Homo sapiens) (UniProt P08670)
[2] = target: vimentin coils 1A and 1B (Homo sapiens) (UniProt P08670); assay: MST

Chain of UniProt P08670 (P08670 96-245): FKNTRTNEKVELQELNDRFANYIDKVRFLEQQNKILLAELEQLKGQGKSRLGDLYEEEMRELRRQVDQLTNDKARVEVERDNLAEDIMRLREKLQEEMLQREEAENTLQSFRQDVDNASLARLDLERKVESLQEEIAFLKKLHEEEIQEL

| Substance | Kd [1] | Kd [2] |
| --- | --- | --- |
| envoplakin PRD (from UniProt Q92817) | 19 µM | – |
| periplakin linker domain (from UniProt O60437) | – | 31 µM and 70 µM |
